US20190031748A1
Each block holds one binder with its values, some of them ahead of it.

Tests used:
[1] = molecular target: N-terminal biotin labelled human CGRP (Abgent Custom Synthesized Peptide #355061532) (human) (UniProt P06881); assay: ELISA; Fab captured on anti-human kappa; N-terminal biotin CGRP at 2.222 nM; 2 h dissociation step; neutravidin-AP detection
[2] = molecular target: N-terminal biotin labelled human CGRP (Abgent Custom Synthesized Peptide #355061532) (human) (UniProt P06881); assay: ELISA; Fab captured on anti-human kappa; N-terminal biotin CGRP at 0.082 nM; 2 h dissociation step; neutravidin-AP detection
[3] = molecular target: N-terminal biotin labelled human CGRP (Abgent Custom Synthesized Peptide #355061532) (human) (UniProt P06881); assay: ELISA; Fab captured on anti-human kappa; N-terminal biotin CGRP at 0.009 nM; 2 h dissociation step; neutravidin-AP detection
[4] = molecular target: N-terminal biotin labelled human CGRP (Abgent Custom Synthesized Peptide #355061532) (human) (UniProt P06881); assay: ELISA; Fab captured on anti-human kappa; N-terminal biotin CGRP at 20 nM; 2 h dissociation step; neutravidin-AP detection
[5] = molecular target: N-terminal biotin labelled human CGRP (Abgent Custom Synthesized Peptide #355061532) (human) (UniProt P06881); assay: ELISA; Fab captured on anti-human kappa; N-terminal biotin CGRP at 0.741 nM; 2 h dissociation step; neutravidin-AP detection
[6] = molecular target: N-terminal biotin labelled human CGRP (Abgent Custom Synthesized Peptide #355061532) (human) (UniProt P06881); assay: ELISA; Fab captured on anti-human kappa; N-terminal biotin CGRP at 6.667 nM; 2 h dissociation step; neutravidin-AP detection
[7] = molecular target: N-terminal biotin labelled human CGRP (Abgent Custom Synthesized Peptide #355061532) (human) (UniProt P06881); assay: ELISA; Fab captured on anti-human kappa; N-terminal biotin CGRP at 0.247 nM; 2 h dissociation step; neutravidin-AP detection
[8] = molecular target: N-terminal biotin labelled human CGRP (Abgent Custom Synthesized Peptide #355061532) (human) (UniProt P06881); assay: ELISA; Fab captured on anti-human kappa; N-terminal biotin CGRP at 0.027 nM; 2 h dissociation step; neutravidin-AP detection
[9] = molecular target: human CGRP (human) (UniProt P06881); assay: Quanterix Simoa sandwich assay; Antibody II beads capture, biotinylated CA11 detection; CGRP at 0.02 pg/mL
[10] = molecular target: human CGRP (human) (UniProt P06881); assay: Quanterix Simoa sandwich assay; Antibody II beads capture, biotinylated CA11 detection; CGRP at 16.67 pg/mL
[11] = molecular target: human CGRP (human) (UniProt P06881); assay: Quanterix Simoa sandwich assay; Antibody II beads capture, biotinylated CA11 detection; CGRP at 0.62 pg/mL
[12] = molecular target: human CGRP (human) (UniProt P06881); assay: Quanterix Simoa sandwich assay; Antibody II beads capture, biotinylated CA11 detection; CGRP at 1.85 pg/mL
[13] = molecular target: human CGRP (human) (UniProt P06881); assay: Quanterix Simoa sandwich assay; Antibody II beads capture, biotinylated CA11 detection; CGRP at 0.0076 pg/mL
[14] = molecular target: human CGRP (human) (UniProt P06881); assay: Quanterix Simoa sandwich assay; Antibody II beads capture, biotinylated CA11 detection; CGRP at 0.21 pg/mL
[15] = molecular target: human CGRP (human) (UniProt P06881); assay: Quanterix Simoa sandwich assay; Antibody II beads capture, biotinylated CA11 detection; CGRP at 5.56 pg/mL
[16] = molecular target: human CGRP (human) (UniProt P06881); assay: Quanterix Simoa sandwich assay; Antibody II beads capture, biotinylated CA11 detection; CGRP at 0.07 pg/mL
[17] = molecular target: human CGRP (human) (UniProt P06881); assay: Quanterix Simoa sandwich assay; Antibody II beads capture, biotinylated CA11 detection; CGRP at 50 pg/mL

A560 [1]: 0.688 A560
A560 [2]: 0.091 A560
A560 [3]: 0.082 A560
A560 [4]: 1.05 A560
A560 [5]: 0.356 A560
A560 [6]: 1.03 A560
A560 [7]: 0.165 A560
A560 [8]: 0.063 A560
B1: CA11 Fab (Fab, V domains shown)
VH: EVQLQQSGPELVKPGASVKMSCKASGYTFTRSVMHWVKQKPGQGLEWIGYINPYNDGTKYNEKFKGKATLTSDKSSSTAYMELSSLTSEDSAVYYCAKSGNDGYWGQGTTLTVSS
VL: EIVLTQSPTTMAASPGEKITITCSASSSISSIYLHWYQQKPGFSPKVLIYRAKNLASGVPARFSGSGSGTSYSLTIGTMEAEDVATYYCQQGSTIPFTFGSGTKLEIK

Average AEB (AEB (average enzyme per bead)) [9]: 0.0075
Average AEB (AEB (average enzyme per bead)) [10]: 1.18
Average AEB (AEB (average enzyme per bead)) [11]: 0.06
Average AEB (AEB (average enzyme per bead)) [12]: 0.13
Average AEB (AEB (average enzyme per bead)) [13]: 0.0079
Average AEB (AEB (average enzyme per bead)) [14]: 0.02
Average AEB (AEB (average enzyme per bead)) [15]: 0.42
Average AEB (AEB (average enzyme per bead)) [16]: 0.011
Average AEB (AEB (average enzyme per bead)) [17]: 2.99
B2: CA11 antibody (mouse IgG1/kappa) (antibody, V domains shown)
VH: B1 VH
VL: EIVLTQSPTTMAASPGEKITITCSASSSISSIYLHWYQQKPGFSPKVLIYRAKNLASGVPARFSGSGSGTSYSLTIGTMEAEDVATYYCQQGSTIPFTFGSGTKLEIKR
